# Measurements from patent US7026443.
# Where two headings read alike, the source gives them in different places.
# What was measured:
# HLA-A*0201 (human) [1] = assay: inhibition of binding of 125I-labelled standard peptide to purified HLA, gel filtration
# HLA-A*2402 (human) [2] = target: HLA-A*2402 (human)
# HLA-A*1101 (human) [3] = target: HLA-A*1101 (human)
# HLA-A*0301 (human) [4] = target: HLA-A*0301 (human)
# HLA-A*1101 (human) [5] = target: HLA-A*1101 (human); remark: listed apart in the source
# HLA-A*0301 (human) [6] = target: HLA-A*0301 (human); remark: listed apart in the source
# HLA-A*0201 (human) [7] = assay: competition with 125I-labeled standard peptide for purified HLA-A*0201, gel filtration
# HLA-A*2402 (human) [8] = target: HLA-A*2402 (human); remark: listed apart in the source
# [9] = remark: other sources report otherwise
binder,measurement,setting,value
"MLDLQPETTDL (modifications not checked) [HPV16 E7 peptide … (position 12, 11 amino acids)]",relative binding ratio (IC50 of standard peptide / IC50 of test peptide),HLA-A*0201 (human) [1],0.0005
FYSRIRELRHY (modifications not checked) [HPV18 E6 71-81 peptide …],relative binding ratio (IC50 of standard peptide / IC50 of test peptide) (ratio to standard peptide),HLA-A*2402 (human) [2],0.0052
"ALLRYKCGK (modifications not checked) [HPV45 E1 peptide … (position 270, 9 amino acids)]",relative binding ratio (IC50 of standard peptide / IC50 of test peptide),HLA-A*1101 (human) [3],0.14
same,relative binding ratio (IC50 of standard peptide / IC50 of test peptide),HLA-A*0301 (human) [4],0.09
same,relative binding ratio (IC50 of standard peptide / IC50 of test peptide),HLA-A*1101 (human) [5],0.14
"LIRCLRCQK (modifications not checked) [HPV45 E6 peptide … (position 102, 9 amino acids)]",relative binding ratio (IC50 of standard peptide / IC50 of test peptide) (ratio to standard peptide),HLA-A*1101 (human) [3],0.0012
same,relative binding ratio (IC50 of standard peptide / IC50 of test peptide) (ratio to standard peptide),HLA-A*0301 (human) [4],0.019
same,relative binding ratio (IC50 of standard peptide / IC50 of test peptide) (ratio to standard peptide),HLA-A*1101 (human) [5],0.0012
same,binding affinity ratio (IC50 of standard peptide / IC50 of test peptide),HLA-A*0301 (human) [6],0.019
PYKLPDLCTEL (modifications not checked) [HPV45 E6 11 peptide … (SEQ ID NO: 15737)],relative binding ratio (IC50 of standard peptide / IC50 of test peptide),HLA-A*2402 (human) [2],0.0064
"LMGTLGIV (modifications not checked) [HPV16 E7 peptide LMGTLGIV (position 83, 8 amino acids)]",relative binding ratio (IC50 of standard peptide / IC50 of test peptide),HLA-A*0201 (human) [1],0.0001
"DIRTLEDL (modifications not checked) [HPV16 E7 peptide DIRTLEDL (position 75, 8 amino acids)]",relative binding ratio (IC50 of standard peptide / IC50 of test peptide),HLA-A*0201 (human) [1],0.0001
"ALFTAQEAK (modifications not checked) [HPV16 E1 peptide … (position 69, 9 amino acids)]",binding affinity ratio (IC50 of standard peptide / IC50 of test peptide),HLA-A*0301 (human) [4],0.24
same,binding affinity ratio (IC50 of standard peptide / IC50 of test peptide),HLA-A*1101 (human) [5],0.4
same,relative binding ratio (IC50 of standard peptide / IC50 of test peptide) (ratio to standard peptide),HLA-A*0301 (human) [6],0.24
"DLQPETTDL (modifications not checked) [HPV16 E7 peptide … (position 14, 9 amino acids)]",relative binding ratio (IC50 of standard peptide / IC50 of test peptide),HLA-A*0201 (human) [1],0.0003
FYSRIREL (modifications not checked) [HPV18 E6 71-78 peptide FYSRIREL],relative binding ratio (IC50 of standard peptide / IC50 of test peptide) (ratio to standard peptide),HLA-A*2402 (human) [2],0.026
"RLCVQSTHV (modifications not checked) [HPV16 E7 peptide … (position 66, 9 amino acids)]",relative binding ratio (IC50 of standard peptide / IC50 of test peptide),HLA-A*0201 (human) [1]; [9],0.0003
"GVNHQHLPA (modifications not checked) [HPV18 E7 peptide … (position 43, 9 amino acids)]",relative binding ratio (IC50 of standard peptide / IC50 of test peptide) (ratio to standard peptide),HLA-A*0201 (human) [7],0.0001
CYSLYGTTL (modifications not checked) [HPV16 E6 87 …],binding affinity ratio (IC50 of standard peptide / IC50 of test peptide),HLA-A*2402 (human) [2],0.046
same,relative binding ratio (IC50 of standard peptide / IC50 of test peptide) (ratio to standard peptide),HLA-A*2402 (human) [8],0.046
"LLMGTLGI (modifications not checked) [HPV16 E7 peptide LLMGTLGI (position 82, 8 amino acids)]",relative binding ratio (IC50 of standard peptide / IC50 of test peptide),HLA-A*0201 (human) [1],0.0008
"CIDFYSRIR (modifications not checked) [HPV45 E6 peptide … (position 68, 9 amino acids)]",relative binding ratio (IC50 of standard peptide / IC50 of test peptide) (ratio to standard peptide),HLA-A*1101 (human) [3],0.0001
same,relative binding ratio (IC50 of standard peptide / IC50 of test peptide) (ratio to standard peptide),HLA-A*0301 (human) [4],0.0001
same,relative binding ratio (IC50 of standard peptide / IC50 of test peptide) (ratio to standard peptide),HLA-A*1101 (human) [5],0.0001
same,binding affinity ratio (IC50 of standard peptide / IC50 of test peptide),HLA-A*0301 (human) [6],0.001
"HVDIRTLEDL (modifications not checked) [HPV16 E7 peptide … (position 73, 10 amino acids)]",relative binding ratio (IC50 of standard peptide / IC50 of test peptide),HLA-A*0201 (human) [1],0.0001
"RTLEDLLMGT (modifications not checked) [HPV16 E7 peptide … (position 77, 10 amino acids)]",relative binding ratio (IC50 of standard peptide / IC50 of test peptide),HLA-A*0201 (human) [1]; [9],0.0006
"MLDLQPET (modifications not checked) [HPV16 E7 peptide MLDLQPET (position 12, 8 amino acids)]",relative binding ratio (IC50 of standard peptide / IC50 of test peptide),HLA-A*0201 (human) [1]; [9],0.0001
KLPDLCTEL (modifications not checked) [HPV45 E6 13 peptide … (SEQ ID NO: 15726)],relative binding ratio (IC50 of standard peptide / IC50 of test peptide),HLA-A*2402 (human) [2]; [9],0.0013
"TIHDIILECV (modifications not checked) [HPV16 E6 peptide … (position 29, 10 amino acids)]",relative binding ratio (IC50 of standard peptide / IC50 of test peptide),HLA-A*0201 (human) [1],0.021
AVFKDTYGL (modifications not checked) [HPV18 E1 216 peptide …],relative binding ratio (IC50 of standard peptide / IC50 of test peptide) (ratio to standard peptide),HLA-A*0201 (human) [7],0.014
"PYKLPDLCTEL (modifications not checked) [… (HPV18 E6, position 11, 11 amino acids)]",relative binding ratio (IC50 of standard peptide / IC50 of test peptide),HLA-A*2402 (human) [8],0.0064
CLDCKWGVLI (modifications not checked) [HPV18 E1 273 peptide …],relative binding ratio (IC50 of standard peptide / IC50 of test peptide) (ratio to standard peptide),HLA-A*0201 (human) [7],0.0002
VYCKQQLL (modifications not checked) [HPV16 E6 38 VYCKQQLL],relative binding ratio (IC50 of standard peptide / IC50 of test peptide),HLA-A*2402 (human) [2],0.0069
same,relative binding ratio (IC50 of standard peptide / IC50 of test peptide) (ratio to standard peptide),HLA-A*2402 (human) [8],0.0069
"LYNLLIRCL (modifications not checked) [… (HPV18 E6, position 98, 9 amino acids)]",relative binding ratio (IC50 of standard peptide / IC50 of test peptide),HLA-A*2402 (human) [8],0.0001
FYSRIREL (modifications not checked) [HPV45 E6 position 71 peptide FYSRIREL (SEQ ID NO: 46116)],binding affinity ratio (IC50 of standard peptide / IC50 of test peptide),HLA-A*2402 (human) [8],0.026
VYRDGNPY (modifications not checked) [HPV16 E6 60 VYRDGNPY],relative binding ratio (IC50 of standard peptide / IC50 of test peptide),HLA-A*2402 (human) [2],0.0001
"FYSRIREL (modifications not checked) [FYSRIREL (HPV18 E6, position 71, 8 amino acids)]",relative binding ratio (IC50 of standard peptide / IC50 of test peptide),HLA-A*2402 (human) [8],0.026
"VYCKTVLEL (modifications not checked) [… (HPV18 E6, position 33, 9 amino acids)]",relative binding ratio (IC50 of standard peptide / IC50 of test peptide),HLA-A*2402 (human) [8],0.022
"VFEFAFKDLF (modifications not checked) [… (HPV18 E6, position 44, 10 amino acids)]",relative binding ratio (IC50 of standard peptide / IC50 of test peptide),HLA-A*2402 (human) [8],0.036
LYNLLIRCL (modifications not checked) [HPV45 E6 98 peptide … (SEQ ID NO: 15730)],relative binding ratio (IC50 of standard peptide / IC50 of test peptide),HLA-A*2402 (human) [2],0.0001
LYNLLIRCL (modifications not checked) [HPV45 E6 position 98 peptide … (SEQ ID NO: 46118)],binding affinity ratio (IC50 of standard peptide / IC50 of test peptide),HLA-A*2402 (human) [8],0.0001
FYSRIREL (modifications not checked) [HPV45 E6 71 peptide FYSRIREL (SEQ ID NO: 15714)],relative binding ratio (IC50 of standard peptide / IC50 of test peptide),HLA-A*2402 (human) [2],0.026
PYAVCDKCL (modifications not checked) [HPV16 E6 66 …],relative binding ratio (IC50 of standard peptide / IC50 of test peptide),HLA-A*2402 (human) [2],0.0078
same,relative binding ratio (IC50 of standard peptide / IC50 of test peptide) (ratio to standard peptide),HLA-A*2402 (human) [8],0.0078
"DLLMGTLGIV (modifications not checked) [HPV16 E7 peptide … (position 81, 10 amino acids)]",relative binding ratio (IC50 of standard peptide / IC50 of test peptide),HLA-A*0201 (human) [1]; [9],0.0005
"LLIRCLRCQK (modifications not checked) [HPV45 E6 peptide … (position 101, 10 amino acids)]",relative binding ratio (IC50 of standard peptide / IC50 of test peptide) (ratio to standard peptide),HLA-A*1101 (human) [3],0.12
same,relative binding ratio (IC50 of standard peptide / IC50 of test peptide) (ratio to standard peptide),HLA-A*0301 (human) [4],0.047
same,relative binding ratio (IC50 of standard peptide / IC50 of test peptide) (ratio to standard peptide),HLA-A*1101 (human) [5],0.12
same,binding affinity ratio (IC50 of standard peptide / IC50 of test peptide),HLA-A*0301 (human) [6],0.047
"FMSFLTALK (modifications not checked) [HPV16 E1 peptide … (position 453, 9 amino acids)]",binding affinity ratio (IC50 of standard peptide / IC50 of test peptide),HLA-A*0301 (human) [4],0.13
same,binding affinity ratio (IC50 of standard peptide / IC50 of test peptide),HLA-A*1101 (human) [5],0.21
same,binding affinity ratio relative to the standard peptide (IC50 standard / IC50 test),HLA-A*0301 (human) [6],0.13
"MLDLQPETT (modifications not checked) [HPV16 E7 peptide … (position 12, 9 amino acids)]",relative binding ratio (IC50 of standard peptide / IC50 of test peptide),HLA-A*0201 (human) [1]; [9],0.0028
KLPDLCTEL (modifications not checked) [HPV18 E6 13-21 peptide …],relative binding ratio (IC50 of standard peptide / IC50 of test peptide) (ratio to standard peptide),HLA-A*2402 (human) [2]; [9],0.0013
"HLEPQNEI (modifications not checked) [HPV18 E7 peptide HLEPQNEI (position 14, 8 amino acids)]",relative binding ratio (IC50 of standard peptide / IC50 of test peptide) (ratio to standard peptide),HLA-A*0201 (human) [7],0.0001
PYKLPDLCTEL (modifications not checked) [HPV45 E6 position 11 peptide … (SEQ ID NO: 46119)],binding affinity ratio (IC50 of standard peptide / IC50 of test peptide),HLA-A*2402 (human) [8],0.0064
RFHNIRGRW (modifications not checked) [HPV16 E6 131 …],relative binding ratio (IC50 of standard peptide / IC50 of test peptide),HLA-A*2402 (human) [2]; [9],0.022
same,relative binding ratio (IC50 of standard peptide / IC50 of test peptide) (ratio to standard peptide),HLA-A*2402 (human) [8]; [9],0.022
"ATMCRHYKR (modifications not checked) [HPV16 E1 peptide … (position 406, 9 amino acids)]",binding affinity ratio (IC50 of standard peptide / IC50 of test peptide),HLA-A*0301 (human) [4],0.066
same,binding affinity ratio (IC50 of standard peptide / IC50 of test peptide),HLA-A*1101 (human) [5],1.5
same,relative binding ratio (IC50 of standard peptide / IC50 of test peptide) (ratio to standard peptide),HLA-A*0301 (human) [6],0.066
LYNLLIRCL (modifications not checked) [HPV18 E6 98-106 peptide …],relative binding ratio (IC50 of standard peptide / IC50 of test peptide) (ratio to standard peptide),HLA-A*2402 (human) [2],0.0001
"FLNTLSFV (modifications not checked) [HPV18 E7 peptide FLNTLSFV (position 90, 8 amino acids)]",relative binding ratio (IC50 of standard peptide / IC50 of test peptide) (ratio to standard peptide),HLA-A*0201 (human) [7],0.0079
"DLLMGTLGI (modifications not checked) [HPV16 E7 peptide … (position 81, 9 amino acids)]",relative binding ratio (IC50 of standard peptide / IC50 of test peptide),HLA-A*0201 (human) [1],0.0002
DFAFRDLCI (modifications not checked) [HPV16 E6 51 …],binding affinity ratio (IC50 of standard peptide / IC50 of test peptide),HLA-A*2402 (human) [2],0.0003
same,relative binding ratio (IC50 of standard peptide / IC50 of test peptide) (ratio to standard peptide),HLA-A*2402 (human) [8],0.0003
